Laboratory results from the supplement of paper PMC6757056.
± gives the standard deviation of the averaged measurements.

B1: library; a variant is named by its letters at N, in order (parent)
chain: GCUGUCACCGGUGCUUGGUACGUUAUAUUCAGCCGGUCUGAUGAGUCUNNNNNNAGACGAAACAGC

Key:
(6R,S)-folinic acid [1] = variants of: B1; test: normalized RNA/DNA level without ligand (relative to sTRSVctl = 100) (log10 (% of sTRSVctl)); HEK293T overexpressing SLC46A1; higher = less ribozyme self-cleavage, higher mRNA level; settings: without (6R,S)-folinic acid; ligand present: no
How it was run: (§1)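 Library plasmids encoding reporter-linked ribozyme switches (mCherry, or eGFP for some folinic acid experiments) were transfected into HEK293T at 4 µg per 6-well well. Ligand, when used, was added 1 h before transfection. Total RNA was extracted with EDTA 72 h later, then reverse-transcribed, amplified, barcoded and sequenced. RNA level was RNA reads over DNA reads, divided by a spiked-in non-cleaving control (or the top 25 sequences), ×100, log10; only sequences with ≥100 DNA reads were kept.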

(6R,S)-folinic acid [2] = variants of: B1; test: normalized RNA/DNA level with ligand (relative to sTRSVctl = 100) (log10 (% of sTRSVctl)); HEK293T overexpressing SLC46A1; ligand concentration (+) RNA-Seq: 6 mM; higher = less ribozyme self-cleavage, higher mRNA level; settings: with (6R,S)-folinic acid; ligand present: yes
How it was run: as §1

| Variant | normalized RNA/DNA level without ligand (log10) ((6R,S)-folinic acid [1]) | normalized RNA/DNA level with ligand (log10) ((6R,S)-folinic acid [2]) |
| --- | --- | --- |
| GCUGUCACCGGUGCUUGGUACGUUAUAUUCAGCCGGUCUGAUGAGUCUGUGUGGAGACGAAACAGC | 1.908 ± 0.0095 | 2.03 ± 0.048 |
| GCUGUCACCGGUGCUUGGUACGUUAUAUUCAGCCGGUCUGAUGAGUCUUUGUGGAGACGAAACAGC | 1.888 ± 0.0042 | 2.06 ± 0.044 |
| GCUGUCACCGGUGCUUGGUACGUUAUAUUCAGCCGGUCUGAUGAGUCUAUGUGUAGACGAAACAGC | 1.83 ± 0.032 | 1.97 ± 0.047 |
| GCUGUCACCGGUGCUUGGUACGUUAUAUUCAGCCGGUCUGAUGAGUCUCUGUGUAGACGAAACAGC | 1.997 ± 0.017 | 2.011 ± 0.004 |
| GCUGUCACCGGUGCUUGGUACGUUAUAUUCAGCCGGUCUGAUGAGUCUUUGUGUAGACGAAACAGC | 2.03 ± 0.011 | 2.05 ± 0.031 |
| GCUGUCACCGGUGCUUGGUACGUUAUAUUCAGCCGGUCUGAUGAGUCUAUGUUAAGACGAAACAGC | 1.938 ± 1.9e-05 | 1.98 ± 0.057 |
| GCUGUCACCGGUGCUUGGUACGUUAUAUUCAGCCGGUCUGAUGAGUCUCUGUUAAGACGAAACAGC | 1.994 ± 0.0099 | 2.04 ± 0.03 |
| GCUGUCACCGGUGCUUGGUACGUUAUAUUCAGCCGGUCUGAUGAGUCUGUGUUAAGACGAAACAGC | 1.988 ± 0.015 | 2.01 ± 0.025 |
| GCUGUCACCGGUGCUUGGUACGUUAUAUUCAGCCGGUCUGAUGAGUCUAUGUUCAGACGAAACAGC | 2.0332 ± 0.0018 | 2.01 ± 0.021 |
| GCUGUCACCGGUGCUUGGUACGUUAUAUUCAGCCGGUCUGAUGAGUCUCUGUUCAGACGAAACAGC | 2.049 ± 0.016 | 2.03 ± 0.024 |
| GCUGUCACCGGUGCUUGGUACGUUAUAUUCAGCCGGUCUGAUGAGUCUGUGUUCAGACGAAACAGC | 2.01 ± 0.031 | 2.012 ± 0.0073 |
| GCUGUCACCGGUGCUUGGUACGUUAUAUUCAGCCGGUCUGAUGAGUCUUUGUUCAGACGAAACAGC | 2.056 ± 0.017 | 2.08 ± 0.047 |
| GCUGUCACCGGUGCUUGGUACGUUAUAUUCAGCCGGUCUGAUGAGUCUAUGUUGAGACGAAACAGC | 1.889 ± 0.01 | 2.017 ± 0.019 |
| GCUGUCACCGGUGCUUGGUACGUUAUAUUCAGCCGGUCUGAUGAGUCUCUGUUGAGACGAAACAGC | 2.04 ± 0.035 | 2.03 ± 0.027 |
| GCUGUCACCGGUGCUUGGUACGUUAUAUUCAGCCGGUCUGAUGAGUCUGUGUUGAGACGAAACAGC | 1.9429 ± 0.0015 | 2.014 ± 0.015 |
| GCUGUCACCGGUGCUUGGUACGUUAUAUUCAGCCGGUCUGAUGAGUCUUUGUUGAGACGAAACAGC | 1.96 ± 0.026 | 2.05 ± 0.027 |
| GCUGUCACCGGUGCUUGGUACGUUAUAUUCAGCCGGUCUGAUGAGUCUAUGUUUAGACGAAACAGC | 1.976 ± 0.015 | 2.004 ± 0.011 |
| GCUGUCACCGGUGCUUGGUACGUUAUAUUCAGCCGGUCUGAUGAGUCUCUGUUUAGACGAAACAGC | 2.022 ± 0.0036 | 2.06 ± 0.041 |
| GCUGUCACCGGUGCUUGGUACGUUAUAUUCAGCCGGUCUGAUGAGUCUGUGUUUAGACGAAACAGC | 2.03 ± 0.027 | 2.05 ± 0.036 |
| GCUGUCACCGGUGCUUGGUACGUUAUAUUCAGCCGGUCUGAUGAGUCUUUGUUUAGACGAAACAGC | 2.065 ± 0.018 | 2.08 ± 0.035 |
| GCUGUCACCGGUGCUUGGUACGUUAUAUUCAGCCGGUCUGAUGAGUCUCUUAAAAGACGAAACAGC | 1.9796 ± 8.1e-05 | 1.968 ± 0.017 |

| Variant | normalized RNA/DNA level without ligand (log10) ((6R,S)-folinic acid [1]) | normalized RNA/DNA level with ligand (log10) ((6R,S)-folinic acid [2]) |
| --- | --- | --- |
| GCUGUCACCGGUGCUUGGUACGUUAUAUUCAGCCGGUCUGAUGAGUCUGUUAAAAGACGAAACAGC | 1.991 ± 0.011 | 2 ± 0.039 |
| GCUGUCACCGGUGCUUGGUACGUUAUAUUCAGCCGGUCUGAUGAGUCUUUUAAAAGACGAAACAGC | 1.934 ± 0.0037 | 1.97 ± 0.047 |
| GCUGUCACCGGUGCUUGGUACGUUAUAUUCAGCCGGUCUGAUGAGUCUAUUAACAGACGAAACAGC | 2.011 ± 0.0026 | 2.03 ± 0.033 |
| GCUGUCACCGGUGCUUGGUACGUUAUAUUCAGCCGGUCUGAUGAGUCUCUUAACAGACGAAACAGC | 1.9881 ± 0.0006 | 1.983 ± 0.0059 |
| GCUGUCACCGGUGCUUGGUACGUUAUAUUCAGCCGGUCUGAUGAGUCUGUUAACAGACGAAACAGC | 1.976 ± 0.0067 | 2.024 ± 0.015 |
| GCUGUCACCGGUGCUUGGUACGUUAUAUUCAGCCGGUCUGAUGAGUCUUUUAACAGACGAAACAGC | 1.978 ± 0.011 | 1.99 ± 0.028 |
| GCUGUCACCGGUGCUUGGUACGUUAUAUUCAGCCGGUCUGAUGAGUCUAUUAAGAGACGAAACAGC | 1.931 ± 0.011 | 2.01 ± 0.026 |
| GCUGUCACCGGUGCUUGGUACGUUAUAUUCAGCCGGUCUGAUGAGUCUCUUAAGAGACGAAACAGC | 1.913 ± 0.0089 | 1.986 ± 0.0033 |
| GCUGUCACCGGUGCUUGGUACGUUAUAUUCAGCCGGUCUGAUGAGUCUGUUAAGAGACGAAACAGC | 1.96 ± 0.006 | 2.02 ± 0.027 |
| GCUGUCACCGGUGCUUGGUACGUUAUAUUCAGCCGGUCUGAUGAGUCUAUUAAUAGACGAAACAGC | 1.9586 ± 0.0017 | 1.98 ± 0.033 |
| GCUGUCACCGGUGCUUGGUACGUUAUAUUCAGCCGGUCUGAUGAGUCUCUUAAUAGACGAAACAGC | 1.989 ± 0.0044 | 2.001 ± 0.011 |
| GCUGUCACCGGUGCUUGGUACGUUAUAUUCAGCCGGUCUGAUGAGUCUGUUAAUAGACGAAACAGC | 1.9687 ± 4.4e-05 | 2.04 ± 0.026 |
| GCUGUCACCGGUGCUUGGUACGUUAUAUUCAGCCGGUCUGAUGAGUCUUUUAAUAGACGAAACAGC | 1.975 ± 0.0038 | 1.988 ± 0.014 |
| GCUGUCACCGGUGCUUGGUACGUUAUAUUCAGCCGGUCUGAUGAGUCUAUUACAAGACGAAACAGC | 1.992 ± 0.017 | 2.01 ± 0.059 |
| GCUGUCACCGGUGCUUGGUACGUUAUAUUCAGCCGGUCUGAUGAGUCUCUUACAAGACGAAACAGC | 2.004 ± 0.01 | 2 ± 0.022 |
| GCUGUCACCGGUGCUUGGUACGUUAUAUUCAGCCGGUCUGAUGAGUCUGUUACAAGACGAAACAGC | 2.009 ± 0.012 | 2.01 ± 0.053 |
| GCUGUCACCGGUGCUUGGUACGUUAUAUUCAGCCGGUCUGAUGAGUCUUUUACAAGACGAAACAGC | 2.0168 ± 0.00066 | 2.029 ± 0.0067 |
| GCUGUCACCGGUGCUUGGUACGUUAUAUUCAGCCGGUCUGAUGAGUCUAUUACCAGACGAAACAGC | 2.019 ± 0.0035 | 2 ± 0.025 |
| GCUGUCACCGGUGCUUGGUACGUUAUAUUCAGCCGGUCUGAUGAGUCUCUUACCAGACGAAACAGC | 2.022 ± 0.0014 | 1.995 ± 0.016 |
| GCUGUCACCGGUGCUUGGUACGUUAUAUUCAGCCGGUCUGAUGAGUCUAUUACGAGACGAAACAGC | 1.941 ± 0.005 | 2.026 ± 0.011 |
